Laboratory results from the supplement of paper PMC10567573.

B1: ZNF649 (parent)
chain: MTKAQESLTLEDVAVDFTWEEWQF

Variants of: B1
Assay: protein stability index of a GFP-peptide fusion (GPS, HEK-293T) (PSI 1-6); higher = more stable
Settings: c terminus: a fixed tail appended
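Further: lentivirally expressed fusions sorted by FACS into six bins by GFP to DsRed ratio, PSI derived from sequencing read proportions per bin multiplied by bin number.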

Row | Variant | protein stability index
1 | MTKAQESHTLEDVAVDFTWEEWQF [L8H] | 4.05
2 | MTKAQESLTLEDDAVDFTWEEWQF [V13D] | 4.11
3 | MTKAQESLTLEDIAVDFTWEEWQF [V13I] | 3.47
4 | MTKAQESLTLEDEAVDFTWEEWQF [V13E] | 4.25
5 | MTKAQESLTLEDKAVDFTWEEWQF [V13K] | 4.16
6 | MTKAQESLTLEDPAVDFTWEEWQF [V13P] | 4.15
7 | MTKAQESLTLEDCAVDFTWEEWQF [V13C] | 3.37
8 | MTKAQESLTLEDYAVDFTWEEWQF [V13Y] | 3.17
9 | MTKAQESLTLEDTAVDFTWEEWQF [V13T] | 4.11
10 | MTKAQESLTLEDGAVDFTWEEWQF [V13G] | 3.64
11 | MTKAQESLTLEDAAVDFTWEEWQF [V13A] | 3.98
12 | MTKAQESLTLEDNAVDFTWEEWQF [V13N] | 4.33
13 | MTKAQESLTLEDLAVDFTWEEWQF [V13L] | 3.23
14 | MTKAQESLTLEDWAVDFTWEEWQF [V13W] | 2.36
15 | MTKAQESLTLEDMAVDFTWEEWQF [V13M] | 3.54
16 | MTKAQESLTLEDFAVDFTWEEWQF [V13F] | 2.54
17 | MTKAQESLTLEDSAVDFTWEEWQF [V13S] | 4.69
18 | MTKAQESLTLEDQAVDFTWEEWQF [V13Q] | 4.18
19 | MTKAQESLTLEDHAVDFTWEEWQF [V13H] | 3.88
20 | MTKAQESLTLEDRAVDFTWEEWQF [V13R] | 3.45
21 | MTKAQESLTLEDVADDFTWEEWQF [V15D] | 3.77
22 | MTKAQESLTLEDVATDFTWEEWQF [V15T] | 4.1
23 | MTKAQESLTLEDVACDFTWEEWQF [V15C] | 3.71
24 | MTKAQESLTLEDVAQDFTWEEWQF [V15Q] | 4.44

Row | Variant | protein stability index
25 | MTKAQESLTLEDVAIDFTWEEWQF [V15I] | 2.53
26 | MTKAQESLTLEDVAMDFTWEEWQF [V15M] | 3.77
27 | MTKAQESLTLEDVASDFTWEEWQF [V15S] | 3.35
28 | MTKAQESLTLEDVAKDFTWEEWQF [V15K] | 3.95
29 | MTKAQESLTLEDVALDFTWEEWQF [V15L] | 2.56
30 | MTKAQESLTLEDVAYDFTWEEWQF [V15Y] | 3.91
31 | MTKAQESLTLEDVAADFTWEEWQF [V15A] | 3.92
32 | MTKAQESLTLEDVAHDFTWEEWQF [V15H] | 4.33
33 | MTKAQESLTLEDVANDFTWEEWQF [V15N] | 3.87
34 | MTKAQESLTLEDVARDFTWEEWQF [V15R] | 4.16
35 | MTKAQESLTLEDVAPDFTWEEWQF [V15P] | 4.07
36 | MTKAQESLTLEDVAFDFTWEEWQF [V15F] | 2.48
37 | MTKAQESLTLEDVAGDFTWEEWQF [V15G] | 4.07
38 | MTKAQESLTLEDVAWDFTWEEWQF [V15W] | 2.59
39 | MTKAQESLTLEDVAEDFTWEEWQF [V15E] | 3.94
40 | MTKAQESLTLEDVAVDFCWEEWQF [T18C] | 2.64
41 | MTKAQESLTLEDVAVDFAWEEWQF [T18A] | 3.87
42 | MTKAQESLTLEDVAVDFDWEEWQF [T18D] | 4.1
43 | MTKAQESLTLEDVLVDFTWEEWQF [A14L] | 1.74
44 | MTKAQESLTLEDVHVDFTWEEWQF [A14H] | 3.12
45 | MTKAQESLTLEDVNVDFTWEEWQF [A14N] | 2.92
46 | MTKAQESLTLEDVIVDFTWEEWQF [A14I] | 1.88
47 | MTKAQESLTLEDVMVDFTWEEWQF [A14M] | 2.46
48 | MTKAQESLTLEDVFVDFTWEEWQF [A14F] | 2.08

Row | Variant | protein stability index
49 | MTKAQESLTLEDVSVDFTWEEWQF [A14S] | 3.06
50 | MTKAQESLTLEDVDVDFTWEEWQF [A14D] | 4.04
51 | MTKAQESLTLEDVQVDFTWEEWQF [A14Q] | 3.61
52 | MTKAQESLTLEDVCVDFTWEEWQF [A14C] | 2.4
53 | MTKAQESLTLEDVTVDFTWEEWQF [A14T] | 2.92
54 | MTKAQESLTLEDVPVDFTWEEWQF [A14P] | 4.12
55 | MTKAQESLTLEDVYVDFTWEEWQF [A14Y] | 1.65
56 | MTKAQESLTLEDVWVDFTWEEWQF [A14W] | 3.29
57 | MTKAQESLTLEDVAVDETWEEWQF [F17E] | 5.01
58 | MTKAQESLTLEDVAVDGTWEEWQF [F17G] | 3.81
59 | MTKAQESLTLEDVAVDYTWEEWQF [F17Y] | 3.76
60 | MTKAQESLTLEDVAVDNTWEEWQF [F17N] | 3.64
61 | MTKAQESLTLEDVAVDSTWEEWQF [F17S] | 4.52
62 | MTKAQESLTLEDVAVDATWEEWQF [F17A] | 4.42
63 | MTKAQESLTLEDVAVDPTWEEWQF [F17P] | 4.43
64 | MTKAQESLTLEDVAVDVTWEEWQF [F17V] | 4.05
65 | MTKAQESLTLEDVAVDLTWEEWQF [F17L] | 4.03
66 | MTKAQESLTLEDVAVDTTWEEWQF [F17T] | 3.95
67 | MTKAQESLTLEDVAVDITWEEWQF [F17I] | 4.25
68 | MTKAQESLTLEDVAVDKTWEEWQF [F17K] | 4.72
69 | MTKAQESLTLEDVAVDHTWEEWQF [F17H] | 3.94
70 | MTKAQESLTLEDVAVDQTWEEWQF [F17Q] | 4.51
71 | MTKAQESLTLEDVAVDCTWEEWQF [F17C] | 4.1
72 | MTKAQESLTLEDVAVDRTWEEWQF [F17R] | 3.61

Row | Variant | protein stability index
73 | MTKAQESLTLEDVAVDMTWEEWQF [F17M] | 4.17
74 | MTKAQESLTLEDVAVDDTWEEWQF [F17D] | 4.75
75 | MTKAQESLTLEDVAVDWTWEEWQF [F17W] | 3.31
76 | MTKAQESLTHEDVAVDFTWEEWQF [L10H] | 4.42
77 | MTKAQESLTYEDVAVDFTWEEWQF [L10Y] | 3.24
78 | MTKAQESLTFEDVAVDFTWEEWQF [L10F] | 3.61
79 | MTKAQESLTCEDVAVDFTWEEWQF [L10C] | 4.05
80 | MTKAQESLTSEDVAVDFTWEEWQF [L10S] | 4.07
81 | MTKAQESLTREDVAVDFTWEEWQF [L10R] | 3.88
82 | MTKAQESLTIEDVAVDFTWEEWQF [L10I] | 2.81
83 | MTKAQESLTNEDVAVDFTWEEWQF [L10N] | 4.29
84 | MTKAQESLTMEDVAVDFTWEEWQF [L10M] | 3.44
85 | MTKAQESLTTEDVAVDFTWEEWQF [L10T] | 4.05
86 | MTKAQESLTDEDVAVDFTWEEWQF [L10D] | 4.91
87 | MTKAQESLTKEDVAVDFTWEEWQF [L10K] | 4.34
88 | MTKAQESLTQEDVAVDFTWEEWQF [L10Q] | 4.13
89 | MTKAQESLTPEDVAVDFTWEEWQF [L10P] | 4.11
90 | MTKAQESLTEEDVAVDFTWEEWQF [L10E] | 4.38
91 | MTKAQESLTAEDVAVDFTWEEWQF [L10A] | 3.8
92 | MTKAQESLTVEDVAVDFTWEEWQF [L10V] | 3.01
93 | MTKAQESLTWEDVAVDFTWEEWQF [L10W] | 3.19
94 | MTKAQESLTGEDVAVDFTWEEWQF [L10G] | 4.14
